The labels stand for the following.
T1: human D2H transporter receptor domain, amino acid residues 387-685, His-tag fusion protein (human, UniProt Q07837 387-685)
T1 construct: Expressed as His-tag fusion, purified under denaturing conditions, coated on plates; not shown: poly-histidine tag (pET His-tag) at the NH2-terminal end
T1 sequence: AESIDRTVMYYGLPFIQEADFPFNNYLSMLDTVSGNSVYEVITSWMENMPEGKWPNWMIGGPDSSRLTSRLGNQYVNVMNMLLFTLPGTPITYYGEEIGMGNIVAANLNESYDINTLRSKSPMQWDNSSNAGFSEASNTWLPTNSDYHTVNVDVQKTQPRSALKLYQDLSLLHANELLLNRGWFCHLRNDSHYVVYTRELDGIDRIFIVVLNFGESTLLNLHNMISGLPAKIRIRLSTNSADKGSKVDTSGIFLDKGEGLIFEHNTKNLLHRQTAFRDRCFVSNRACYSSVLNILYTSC

T2: human PEPT1 (hPEPT1) receptor domain, amino acid residues 391-571, His-tag fusion protein (human, UniProt P46059 391-571)
T2 construct: Expressed as His-tag fusion, purified under denaturing conditions, coated on plates; not shown: poly-histidine tag (pET His-tag) at the NH2-terminal end
T2 sequence: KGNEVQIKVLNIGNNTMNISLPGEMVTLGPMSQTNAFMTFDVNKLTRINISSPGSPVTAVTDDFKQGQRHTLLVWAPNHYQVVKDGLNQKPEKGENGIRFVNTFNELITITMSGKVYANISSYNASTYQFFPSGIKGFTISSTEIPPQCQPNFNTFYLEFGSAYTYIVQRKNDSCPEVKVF

B1: phage SNi45 (peptide)
peptide: SGGEVSSWGRVNDLCARVSWTGCGTARSARTDNKGFLPKHSSLR
notes: pIII and flanks not included
B2: phage SNi38 (peptide)
peptide: RGAADQRRGWSENLGLPRVGWDAIAHNSYTFTSRRPRPP
notes: pIII and flanks not included
B3: phage S22 (peptide)
peptide: SSSSDWGGVPGKVVRERFKGRGCGISITSVLTGKPNPCPEPKAA
notes: pIII and flanks not included
B4: phage SNiAX6 (peptide)
peptide: RTTTAKGCLLGSFGVLSGCSFTPTSPPPHLGYPPHSVN
notes: pIII and flanks not included
B5: phage SNi10 (peptide)
peptide: RVGQCTDSDVRRPWARSCAHQGCGAGTRNSHGCITRPLRQASAH
notes: pIII and flanks not included
B6: phage SNiAX2 (peptide)
peptide: SDSDGDHYGLRGGVRCSLRDRGCGLALSTVHAGPPSFYPKLSSP
notes: pIII and flanks not included
B7: phage SNiAX8 (peptide)
peptide: SPKLSSVGVMTKVTELPTEGPNAISIPISATLGPRNPLR
notes: pIII and flanks not included
B8: phage SNi28 (peptide)
peptide: SHSGGMNRAYGDVFRELRDRWNATSHHTRPTPQLPRGPN
notes: pIII and flanks not included
B9: phage SNi34 (peptide)
peptide: SPCGGSWGRFMQGGLFGGRTDGCGAHRNRTSASLEPPSSDY
notes: pIII and flanks not included
B10: phage S15 (peptide)
peptide: RSGAYESPDGRGGRSYVGGGGGCGNIGRKHNLWGLRTASPACWD
notes: pIII and flanks not included
B11: phage DAB24 (peptide)
peptide: SKWSWSSRWGSPQDKVEKTRAGCGGSPSSTNCHPYTFAPPPQAG
notes: pIII and flanks not included
B12: phage DAB7 (peptide)
peptide: RWCGADDPCGASRWRGGNSLFGCGLRCSAAQSTPSGRIHSTSTS
notes: pIII and flanks not included
B13: phage DAX23 (peptide)
peptide: REWRFAGPPLDLWAGPSLPSFNASSHPRALRTYWSQRPR
notes: pIII and flanks not included
B14: phage DAB18 (peptide)
peptide: RSSANNCEWKSDWMRRACIARYANSSGPARAVDTKAAP
notes: pIII and flanks not included
B15: phage DAB10 (peptide)
peptide: SKSGEGGDSSRGETGWARVRSHAMTAGRFRWYNQLPSDR
notes: pIII and flanks not included
B16: phage DAX24 (peptide)
peptide: RMEDIKNSGWRDSCRWGDLRPGCGSRQWYPSNMRSSRDYPAGGH
notes: pIII and flanks not included
B17: phage DAB30 (peptide)
peptide: SGFWEFSRGLWDGENRKSVRSGCGFRGSSAQGPCPVTPATIDKH
notes: pIII and flanks not included
B18: phage DAX27 (peptide)
peptide: SHPWYRHWNHGDFSGSGQSRHTPPESPHPGRPNATI
notes: pIII and flanks not included
B19: phage DAB3 (peptide)
peptide: RWCGAELCNSVTKKFRPGWRDHANPSTHHRTPPPSQSSP
notes: pIII and flanks not included
B20: phage DAX15 (peptide)
peptide: SESGRCRSVSRWMTTWQTQKGGCGSNVSRGSPLDPSHQTGHATT
notes: pIII and flanks not included
B21: phage PAX35 (peptide)
peptide: RSITDGGINEVDLSSVSNVLENANSHRAYRKHRPTLKRP
notes: pIII and flanks not included
B22: phage P90 (peptide)
peptide: SSADAEKCAGSLLWWGRQNNSGCGSPTKKHLKHRNRSQTSSSSH
notes: pIII and flanks not included
B23: phage PAX9 (peptide)
peptide: RWPSVGYKGNGSDTIDVHSNDASTKRSLIYNHRRPLFP
notes: pIII and flanks not included
B24: phage PAX16 (peptide)
peptide: SWTRWGKHTHGGFVNKSPPGKNATSPYTDAQLPSDQGPP
notes: pIII and flanks not included
B25: phage PAX14 (peptide)
peptide: RTFENDGLGVGRSIQKKSDRWYASHNIRSHFASMSPAGK
notes: pIII and flanks not included
B26: phage PAX45 (peptide)
peptide: SFQVYPDHGLERHALDGTGPLYAMPGRWIRARPQNRDRQ
notes: pIII and flanks not included
B27: phage PAX43 (peptide)
peptide: RWCEKHKFTAARCSAGAGFERDASRPPQPAHRDNTNRNA
notes: pIII and flanks not included
B28: phage PAX15 (peptide)
peptide: SYCRVKGGGEGGHTDSNLARSGCGKVARTSRLQHINPRATPPSR
notes: pIII and flanks not included
B29: phage PAX18 (peptide)
peptide: SFLRFQSPRFEDYSRTISRLRNATNPSNVSDAHNNRALA
notes: pIII and flanks not included
B30: phage PAX46 (peptide)
peptide: SRCTDNEQCPDTGTRSRSVSNARYFSSRLLKTHAPHRP
notes: pIII and flanks not included
B31: phage 5PAX12 (peptide)
peptide: RGWKCEGSQAAYGDKDIGRSRGCGSITKNNTNHAHPSHGAVAKI
notes: pIII and flanks not included
B32: phage PAX40 (peptide)
peptide: RASTQGGRGVAPEFGASVLGRGCGSATYYTNSTSCKDAMGHNYS
notes: pIII and flanks not included
B33: phage PAX38 (peptide)
peptide: SSKVSSPRDPTVPRKGGNVDYGCGHRSSARMPTSALSSITKCYT
notes: pIII and flanks not included
B34: phage P31 (peptide)
peptide: SARDSGPAEDGSRAVRLNGVENANTRKSSRSNPRGRRHP
notes: pIII and flanks not included
B35: phage PAX17 (peptide)
peptide: SQVDSFRNSFRWYEPSRALCHGCGKRDTSTTRIHNSPSDSYPTR
notes: pIII and flanks not included

T3 sequence (P14410 272-667, one chain of several): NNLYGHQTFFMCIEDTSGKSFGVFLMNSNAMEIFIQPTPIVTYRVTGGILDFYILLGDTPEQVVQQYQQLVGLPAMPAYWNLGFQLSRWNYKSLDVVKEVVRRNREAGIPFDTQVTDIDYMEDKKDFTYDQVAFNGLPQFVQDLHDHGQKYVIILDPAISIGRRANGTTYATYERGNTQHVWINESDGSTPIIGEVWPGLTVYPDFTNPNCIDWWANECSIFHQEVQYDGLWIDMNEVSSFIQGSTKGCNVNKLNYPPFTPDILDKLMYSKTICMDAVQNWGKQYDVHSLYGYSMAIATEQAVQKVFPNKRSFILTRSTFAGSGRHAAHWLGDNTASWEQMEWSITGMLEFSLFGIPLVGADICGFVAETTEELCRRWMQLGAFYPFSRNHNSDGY

One experiment has as its target T3, human sucrase-isomaltase complex (hSI) receptor domain, amino acid residues 272-667, His-tag fusion protein (human, UniProt P14410 272-667).
T3 construct: Expressed as His-tag fusion, purified under denaturing conditions (urea or guanidine HCl), coated on plates; also called hS1 receptor domain; not shown: poly-histidine tag (pET His-tag) at the NH2-terminal end
Nature of the experiment: phage ELISA, OD on hSI over OD on BSA. A general note: In an ELISA, binding on a coated surface is turned into a signal by an enzyme label.
B1 yielded a hSI/BSA of 9 ratio.

Take B2: the hSI/BSA amounted to 6 ratio.

Consider B3, for which the hSI/BSA came to 7 ratio.

For B4, the hSI/BSA worked out at 7 ratio.

The molecule B5 yielded a hSI/BSA of 11 ratio.

The molecule B6 registered a hSI/BSA of 6 ratio.

Take B7: the hSI/BSA turned out to be 5 ratio.

Molecule B8 returned a hSI/BSA of 8 ratio.

For the molecule B9, the hSI/BSA was 7 ratio.

In turn, B10 displayed a hSI/BSA of 9 ratio.

Another experiment concerns the target T1, human D2H transporter receptor domain, …. Nature of the experiment: phage ELISA, OD on D2H over OD on BSA. The method, then: (§1) 6.6. Receptor ELISA Procedure 96 well plates were coated overnight with GIT receptor, BSA and, optionally, IDE (insulin degrading enzyme, an irrelevant His-fusion protein) or hTF. The plates were blocked for one hour with 0.5% BSA-PBS. After clarification, the amplified phage were diluted 1:100 in 1% BSA plus 0.05% Tween 20 in PBS and added to the plates. Following incubation of the plates on a rotator for 1 to 2 hours, the plates were washed 5 times with 1% BSA plus 0.05% Tween 20 in PBS. […] After the plates were washed 5 times, as described above, TMB substrate was added to the wells. The plates were read at 650 nm absorbance.
In the case of B11, the D2H/BSA is 4 ratio.

The molecule B12 gave a D2H/BSA of 8 ratio.

For the molecule B13, the D2H/BSA is 5 ratio.

As for B14, the D2H/BSA was determined as 5 ratio.

In turn, B15 registered a D2H/BSA of 4 ratio.

Consider B16, for which the D2H/BSA was 5 ratio.

Molecule B17 displayed a D2H/BSA of 6 ratio.

B18 gave a D2H/BSA of 4 ratio.

In the case of B19, the D2H/BSA turned out to be 6 ratio.

With B20, the D2H/BSA came out at 4 ratio.

The next experiment shares this target. Nature of the experiment: phage ELISA, coated D2H domain. The method, then: as §1
In turn, B11 gave an OD of 1.8 OD 650 nm.

Molecule B12 displayed an OD of 0.702 OD 650 nm.

On to B13, for which the OD worked out at 0.698 OD 650 nm.

The molecule B14 had an OD of 0.467 OD 650 nm.

With B15, the OD is 0.644 OD 650 nm.

As for B16, the OD stood at 0.591 OD 650 nm.

In turn, B17 came in with an OD of 0.704 OD 650 nm.

Take B18: the OD was found to be 1.58 OD 650 nm.

B19: the OD stood at 0.406 OD 650 nm.

The molecule B20 gave an OD of 0.391 OD 650 nm.

The target of another experiment is T2, human PEPT1 (hPEPT1) receptor domain, …. As to the kind of experiment: phage ELISA, coated hPEPT1 domain. As to the method:
as §1
On to B21, for which the OD is 0.474 OD 650 nm.

Regarding B22, the OD stood at 1.12 OD 650 nm.

The molecule B23 registered an OD of 0.312 OD 650 nm.

B24 had an OD of 0.648 OD 650 nm.

In turn, B25 returned an OD of 1.1 OD 650 nm.

Turning to B26, the OD worked out at 0.419 OD 650 nm.

Turning to B27, the OD turned out to be 0.345 OD 650 nm.

With B28, the OD is 0.301 OD 650 nm.

For B29, the OD was 0.416 OD 650 nm.

The molecule B30 yielded an OD of 0.429 OD 650 nm.

B31 had an OD of 0.227 OD 650 nm.

The molecule B32 displayed an OD of 0.461 OD 650 nm.

Molecule B33 had an OD of 0.292 OD 650 nm.

As to B34, the OD worked out at 0.807 OD 650 nm.

B35 came in with an OD of 0.514 OD 650 nm.

For a further experiment the target is unchanged. As to the kind of experiment: phage ELISA, OD on hPEPT1 over OD on BSA. The method, then: as §1
The molecule B21 showed a PEPT1/BSA of 7 ratio.

B22 came in with a PEPT1/BSA of 9 ratio.

For B23, the PEPT1/BSA is 4 ratio.

B24 yielded a PEPT1/BSA of 4 ratio.

On to B25, for which the PEPT1/BSA is 8 ratio.

For B26, the PEPT1/BSA was 5 ratio.

B27 yielded a PEPT1/BSA of 5 ratio.

On to B28, for which the PEPT1/BSA is 4 ratio.

On to B29, for which the PEPT1/BSA worked out at 5 ratio.

For the molecule B30, the PEPT1/BSA amounted to 6 ratio.

B31: the PEPT1/BSA worked out at 6 ratio.

Turning to B32, the PEPT1/BSA worked out at 6 ratio.

B33 gave a PEPT1/BSA of 5 ratio.

The molecule B34 had a PEPT1/BSA of 11 ratio.

With B35, the PEPT1/BSA amounted to 5 ratio.

The next experiment deals with T3, human sucrase-isomaltase complex (hSI) …. Nature of the experiment: phage ELISA, coated hSI domain.
In turn, B1 returned an OD of 0.518 OD 650 nm.

In the case of B2, the OD amounted to 0.466 OD 650 nm.

The molecule B3 registered an OD of 0.399 OD 650 nm.

Regarding B4, the OD turned out to be 0.369 OD 650 nm.

As for B5, the OD came to 0.57 OD 650 nm.

Take B6: the OD is 0.383 OD 650 nm.

For B7, the OD amounted to 0.342 OD 650 nm.

On to B8, for which the OD stood at 0.942 OD 650 nm.

B9 showed an OD of 0.761 OD 650 nm.

As for B10, the OD amounted to 0.478 OD 650 nm.

Source of the values: patent US7135457 (CYTOGEN, dated 2006).
